pKd: −log10 of the molar value. Values belong to the substance of their own block, whether it stands above or below them.
Columns and labels:
SHMT2 WT = target: T1, SHMT2 WT (UniProt P34897); test: EMSA; conditions: EMSA: 20 mM HEPES pH 7.4, 150 mM NaCl, 20 ug/ml BSA, 0.1 ug tRNA, RNase inhibitor, 8% glycerol, 25 C, 30 min; 4% native PAGE in 0.5x TBE
T1 sequence: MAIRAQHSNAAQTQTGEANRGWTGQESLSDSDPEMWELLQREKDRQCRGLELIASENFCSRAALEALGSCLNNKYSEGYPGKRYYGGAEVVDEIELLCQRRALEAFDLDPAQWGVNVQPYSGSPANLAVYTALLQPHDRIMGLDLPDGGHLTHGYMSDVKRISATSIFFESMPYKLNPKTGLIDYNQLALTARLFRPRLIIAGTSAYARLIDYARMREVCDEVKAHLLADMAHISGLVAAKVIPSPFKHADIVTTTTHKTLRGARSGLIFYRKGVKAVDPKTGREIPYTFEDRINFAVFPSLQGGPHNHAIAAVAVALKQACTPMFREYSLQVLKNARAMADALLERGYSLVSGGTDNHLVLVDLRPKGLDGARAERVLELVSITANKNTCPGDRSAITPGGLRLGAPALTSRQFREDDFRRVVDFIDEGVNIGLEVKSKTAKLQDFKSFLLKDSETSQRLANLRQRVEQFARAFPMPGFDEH

SHMT2 K281S-R284S = test: SEC; Superdex 200 column (16/600), last step of the purification; 20 mM Hepes pH 7.2, 250 mM NaCl, 10% glycerol
[1] = target: Serine hydroxymethyltransferase 2 (SHMT2) wild type; test: as above

Substance: GGGAUAAAGAAAAAAGCGGUGAGUGGGCGAACUACAAUUCCCAAAAGGCCACAAAGGGGCCACCACUACGCAUGCGUAGAUCCCUCCCGUUAGCUUUGGCGCCUCAGCGAGCUCUUCUCGCGCAUGCGUUCUCCGAACGGUCUUCUUCCGACAGCUUGCUGCCCUAGACCAGAGUUGGUGGCUGGACCUCCUGCGACUUCCGAGUUGCG [UTR2 RNA]
pKd (SHMT2 WT): 6.25

stoichiometry N (SHMT2 K281S-R284S): 4
Substance: SHMT2 K281S-R284S (enzyme)

stoichiometry N [1]: 4
Substance: Serine hydroxymethyltransferase 2 (SHMT2) wild type (enzyme)
